These are literature values, as cited in publication PMC12455926.

In the data set the target is AXL (Homo sapiens) (UniProt P30530).

Spike protein NTD (from UniProt P0DTC2): the Kd (usually the equilibrium constant for the complex coming apart) was 882 nM.
